Experimental data taken from patent publication US20130230532A1 (HONG KONG UNIVERSITY OF SCIENCE AND TECHNOLOGY, published 2013).

T1: EB1 (UniProt Q15691 2-268)
T1 construct: Endogenous protein detected by immunoblot or mass spectrometry; also called endogenous EB1
T1 sequence (looked up): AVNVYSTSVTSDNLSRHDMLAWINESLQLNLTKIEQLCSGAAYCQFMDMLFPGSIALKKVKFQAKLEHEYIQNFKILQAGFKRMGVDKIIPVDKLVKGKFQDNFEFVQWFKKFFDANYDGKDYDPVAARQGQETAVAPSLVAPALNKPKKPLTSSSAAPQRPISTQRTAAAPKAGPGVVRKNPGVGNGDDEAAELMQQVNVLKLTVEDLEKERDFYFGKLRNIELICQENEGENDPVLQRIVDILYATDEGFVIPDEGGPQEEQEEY


Experiments:
[1] = molecular target: T2, AKAP450 (UniProt Q99996 1-3907, limits assumed); assay: anti-FLAG co-immunoprecipitation from HEK293T, immunoblot
T2 construct: Endogenous protein detected by immunoblot; also called AKAP350; CG-NAP
Procedure: The immunoprecipitated proteins and inputs were analyzed by immunoblotting and quantified. […] Data shown are means±S.D. from three independent experiments. […] The arrow indicates a transfected cell. Boxed areas are enlarged. Scale bars, 5 μm.
(§1) Anti-FLAG immunoprecipitation was performed using anti-FLAG-coupled beads (M2, Sigma) in cell extracts prepared with a lysis buffer (20 mM Tris-HCl, pH7.4, 150 mM NaCl, 1 mM EDTA, 1% Triton X-100, 1 mM dithiothreitol, and the Protease Inhibitor Cocktail). Immunoprecipitated proteins were detected by immunoblotting.

[2] = molecular target: T1, EB1; assay: anti-FLAG co-immunoprecipitation, immunoblot
Procedure: (§2) After anti-FLAG immunoprecipitation, the immunoprecipitates and inputs were probed on immunoblots. […] Scale bars, 5 μm.
as §1

[3] = molecular target: T3, GFP-EB3 (UniProt Q9UPY8 1-281); assay: anti-FLAG co-immunoprecipitation from HEK293T, anti-GFP immunoblot
T3 construct: not shown: GFP tag
Procedure: as §2, §1

T2 sequence (Q99996 whole entry): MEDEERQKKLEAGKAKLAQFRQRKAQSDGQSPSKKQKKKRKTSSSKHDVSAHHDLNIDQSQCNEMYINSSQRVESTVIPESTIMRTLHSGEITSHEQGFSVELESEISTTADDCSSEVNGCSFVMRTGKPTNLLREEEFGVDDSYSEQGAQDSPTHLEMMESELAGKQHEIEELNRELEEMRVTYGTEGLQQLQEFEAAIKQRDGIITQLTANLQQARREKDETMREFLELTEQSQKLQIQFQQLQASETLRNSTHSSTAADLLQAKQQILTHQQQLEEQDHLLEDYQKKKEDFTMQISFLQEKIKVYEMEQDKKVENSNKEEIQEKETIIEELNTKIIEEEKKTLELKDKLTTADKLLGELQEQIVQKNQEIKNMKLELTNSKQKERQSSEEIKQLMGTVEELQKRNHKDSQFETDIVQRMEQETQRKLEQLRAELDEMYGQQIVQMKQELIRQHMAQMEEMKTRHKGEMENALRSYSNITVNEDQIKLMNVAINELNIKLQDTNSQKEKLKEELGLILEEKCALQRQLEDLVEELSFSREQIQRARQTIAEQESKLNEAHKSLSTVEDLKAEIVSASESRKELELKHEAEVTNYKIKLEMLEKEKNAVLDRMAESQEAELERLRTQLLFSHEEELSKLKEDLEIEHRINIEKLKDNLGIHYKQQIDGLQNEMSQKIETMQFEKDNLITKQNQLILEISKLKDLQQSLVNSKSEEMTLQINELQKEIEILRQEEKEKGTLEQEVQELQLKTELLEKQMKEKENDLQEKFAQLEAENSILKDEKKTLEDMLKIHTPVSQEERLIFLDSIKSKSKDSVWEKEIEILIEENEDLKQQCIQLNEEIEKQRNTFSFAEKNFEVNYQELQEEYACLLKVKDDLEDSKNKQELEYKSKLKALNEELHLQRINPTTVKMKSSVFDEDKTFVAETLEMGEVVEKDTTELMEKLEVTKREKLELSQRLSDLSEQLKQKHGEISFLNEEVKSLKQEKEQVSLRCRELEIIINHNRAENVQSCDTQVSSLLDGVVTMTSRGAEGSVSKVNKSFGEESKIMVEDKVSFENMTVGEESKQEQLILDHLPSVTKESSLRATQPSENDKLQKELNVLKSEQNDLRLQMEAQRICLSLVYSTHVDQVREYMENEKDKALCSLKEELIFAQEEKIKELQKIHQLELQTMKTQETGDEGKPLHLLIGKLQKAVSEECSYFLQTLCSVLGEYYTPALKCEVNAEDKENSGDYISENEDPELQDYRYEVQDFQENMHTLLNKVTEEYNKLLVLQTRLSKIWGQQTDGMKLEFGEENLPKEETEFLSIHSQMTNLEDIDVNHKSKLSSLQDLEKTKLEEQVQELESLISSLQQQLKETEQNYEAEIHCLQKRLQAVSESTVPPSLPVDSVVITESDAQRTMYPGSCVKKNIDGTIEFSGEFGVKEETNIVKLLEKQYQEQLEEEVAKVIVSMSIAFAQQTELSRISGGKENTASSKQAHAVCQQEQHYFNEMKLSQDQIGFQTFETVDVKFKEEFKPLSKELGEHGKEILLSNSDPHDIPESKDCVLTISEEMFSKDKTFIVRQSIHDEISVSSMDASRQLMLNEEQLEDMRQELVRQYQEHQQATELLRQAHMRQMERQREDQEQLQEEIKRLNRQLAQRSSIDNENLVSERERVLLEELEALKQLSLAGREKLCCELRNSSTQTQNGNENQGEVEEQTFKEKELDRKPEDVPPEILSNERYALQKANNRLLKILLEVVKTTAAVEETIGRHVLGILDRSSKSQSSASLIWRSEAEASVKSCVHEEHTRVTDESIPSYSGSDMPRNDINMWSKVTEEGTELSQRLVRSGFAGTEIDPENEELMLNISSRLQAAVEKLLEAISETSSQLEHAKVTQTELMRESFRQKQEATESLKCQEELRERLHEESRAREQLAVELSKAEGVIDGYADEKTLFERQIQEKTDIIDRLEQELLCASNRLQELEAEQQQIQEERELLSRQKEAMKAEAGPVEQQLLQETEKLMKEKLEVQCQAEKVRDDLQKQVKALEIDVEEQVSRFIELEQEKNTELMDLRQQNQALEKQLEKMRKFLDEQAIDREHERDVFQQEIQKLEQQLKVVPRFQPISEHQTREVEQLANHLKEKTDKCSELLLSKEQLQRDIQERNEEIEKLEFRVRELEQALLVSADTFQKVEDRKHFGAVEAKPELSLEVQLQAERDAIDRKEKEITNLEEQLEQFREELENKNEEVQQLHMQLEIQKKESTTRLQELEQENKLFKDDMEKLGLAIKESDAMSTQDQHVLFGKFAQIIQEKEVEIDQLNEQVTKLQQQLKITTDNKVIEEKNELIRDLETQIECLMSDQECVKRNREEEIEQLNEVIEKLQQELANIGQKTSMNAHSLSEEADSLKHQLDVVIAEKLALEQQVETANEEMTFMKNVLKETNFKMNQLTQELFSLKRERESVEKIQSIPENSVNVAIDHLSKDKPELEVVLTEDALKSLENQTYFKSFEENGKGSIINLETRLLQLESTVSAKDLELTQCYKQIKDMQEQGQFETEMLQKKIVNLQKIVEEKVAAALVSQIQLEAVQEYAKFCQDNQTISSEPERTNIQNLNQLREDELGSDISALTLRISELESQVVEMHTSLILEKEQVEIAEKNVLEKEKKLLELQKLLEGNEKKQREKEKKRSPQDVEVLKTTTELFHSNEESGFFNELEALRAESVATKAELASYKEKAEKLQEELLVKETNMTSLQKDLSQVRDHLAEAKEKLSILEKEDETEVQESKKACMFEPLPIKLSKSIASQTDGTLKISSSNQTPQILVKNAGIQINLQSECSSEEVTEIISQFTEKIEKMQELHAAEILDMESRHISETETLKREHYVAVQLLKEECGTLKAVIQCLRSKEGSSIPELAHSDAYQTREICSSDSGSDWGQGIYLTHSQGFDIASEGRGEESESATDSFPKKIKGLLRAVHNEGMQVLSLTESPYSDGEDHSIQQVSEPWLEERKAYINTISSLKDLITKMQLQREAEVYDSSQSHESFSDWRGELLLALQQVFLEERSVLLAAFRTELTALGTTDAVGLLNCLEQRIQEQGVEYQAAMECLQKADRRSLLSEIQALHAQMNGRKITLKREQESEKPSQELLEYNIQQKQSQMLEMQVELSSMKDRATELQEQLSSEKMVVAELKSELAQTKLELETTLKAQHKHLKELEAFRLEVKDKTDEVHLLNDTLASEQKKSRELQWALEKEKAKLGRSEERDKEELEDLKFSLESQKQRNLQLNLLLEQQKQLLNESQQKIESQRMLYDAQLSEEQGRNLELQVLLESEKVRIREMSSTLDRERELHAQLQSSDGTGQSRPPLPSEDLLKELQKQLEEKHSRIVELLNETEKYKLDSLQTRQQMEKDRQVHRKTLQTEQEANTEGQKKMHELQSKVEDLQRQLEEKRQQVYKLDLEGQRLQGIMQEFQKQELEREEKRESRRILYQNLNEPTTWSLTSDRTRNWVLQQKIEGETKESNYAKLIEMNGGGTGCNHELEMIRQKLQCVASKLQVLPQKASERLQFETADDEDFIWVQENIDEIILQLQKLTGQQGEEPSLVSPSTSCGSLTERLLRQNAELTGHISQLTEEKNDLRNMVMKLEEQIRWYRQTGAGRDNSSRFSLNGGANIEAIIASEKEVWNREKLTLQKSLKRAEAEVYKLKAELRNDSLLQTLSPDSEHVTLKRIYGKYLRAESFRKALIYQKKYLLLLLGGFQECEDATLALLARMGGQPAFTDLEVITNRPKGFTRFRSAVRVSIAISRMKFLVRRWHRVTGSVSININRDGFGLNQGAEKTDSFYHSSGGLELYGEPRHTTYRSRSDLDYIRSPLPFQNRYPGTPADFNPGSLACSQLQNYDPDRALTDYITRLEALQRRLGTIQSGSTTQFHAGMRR
T3 sequence (Q9UPY8 whole entry): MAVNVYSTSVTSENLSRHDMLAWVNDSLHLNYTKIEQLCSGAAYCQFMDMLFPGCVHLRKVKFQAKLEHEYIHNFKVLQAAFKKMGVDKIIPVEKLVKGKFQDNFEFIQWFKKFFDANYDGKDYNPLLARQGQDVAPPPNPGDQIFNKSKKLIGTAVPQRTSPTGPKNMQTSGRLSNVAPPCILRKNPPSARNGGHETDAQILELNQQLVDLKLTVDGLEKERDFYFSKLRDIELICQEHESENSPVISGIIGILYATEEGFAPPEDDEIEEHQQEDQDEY

binding result [1] | binding result [2] | binding result [3] | Binder
no binding |  |  | FLAG-tagged MMG8 fragment 390-1116 (other, not shown: FLAG tag) HETTITQQSVSDSHLAELQEKIQQTEATNKILQEKLNEMSYELKCAQESSQKQDGTIQNLKETLKSRERETEELYQVIEGQNDTMAKLREMLHQSQLGQLHSSEGTSPAQQQVALLDLQSALFCSQLEIQKLQRVVRQKERQLADAKQCVQFVEAAAHESEQQKEASWKHNQELRKALQQLQEELQNKSQQLRAWEAEKYNEIRTQEQNIQHLNHSLSHKEQLLQEFRELLQYRDNSDKTLEANEMLLEKLRQRIHDKAVALERAIDEKFSALEEKEKELRQLRLAVRERDHDLERLRDVLSSNEATMQSMESLLRAKGLEVEQLSTTCQNLQWLKEEMETKFSRWQKEQESIIQQLQTSLHDRNKEVEDLSATLLCKLGPGQSEIAEELCQRLQRKERMLQDLLSDRNKQVLEHEMEIQGLLQSVSTREQESQAAAEKLVQALMERNSELQALRQYLGGRDSLMSQAPISNQQAEVTPTGRLGKQTDQGSMQIPSRDDSTSLTAKEDVSIPRSTLGDLDTVAGLEKELSNAKEELELMAKKERESQMELSALQSMMAVQEEELQVQAADMESLTRNIQIKEDLIKDLQMQLVDPEDIPAMERLTQEVLLLREKVASVESQGQEISGNRRQQLLLMLEGLVDERSRLNEALQAERQLYSSLVKFHAHPESSERDRTLQVELEGAQVLRSRLEEVLGRSLERLNRLETLAAIGGGELESVRIHHKHAY
 | no binding |  | FLAG-tagged MMG8 fragment 1-389 (L311A/P312A) (other, not shown: FLAG tag) MKEICRICARELCGNQRRWIFHTASKLNLQVLLSHVLGKDVPRDGKAEFACSKCAFMLDRIYRFDTVIARIEALSIERLQKLLLEKDRLKFCIASMYRKNNDDSGAEIKAGNGTVDMSVLPDARYSALLQEDFAYSGFECWVENEDQIQEPHSCHGSEGPGNRPRRCRGCAALRVADSDYEAICKVPRKVARSISCGPSSRWSTSICTEEPALSEVGPPDLASTKVPPDGESMEEETPGSSVESLDASVQASPPQQKDEETERSAKELGKCDCCSDDQAPQHGCNHKLELALSMIKGLDYKPIQSPRGSRAAIPVKSSLPGAKPGPSMTDGVSSGFLNRSLKPLYKTPVSYPLELSDLQELWDDLCEDYLPLRVQPMTEELLKQQKLNS
 | no binding | no binding | FLAG-tagged full-length MMG8(L311A/P312A) (other, also called L311A/P312A mutant; not shown: FLAG tag) MKEICRICARELCGNQRRWIFHTASKLNLQVLLSHVLGKDVPRDGKAEFACSKCAFMLDRIYRFDTVIARIEALSIERLQKLLLEKDRLKFCIASMYRKNNDDSGAEIKAGNGTVDMSVLPDARYSALLQEDFAYSGFECWVENEDQIQEPHSCHGSEGPGNRPRRCRGCAALRVADSDYEAICKVPRKVARSISCGPSSRWSTSICTEEPALSEVGPPDLASTKVPPDGESMEEETPGSSVESLDASVQASPPQQKDEETERSAKELGKCDCCSDDQAPQHGCNHKLELALSMIKGLDYKPIQSPRGSRAAIPVKSSLPGAKPGPSMTDGVSSGFLNRSLKPLYKTPVSYPLELSDLQELWDDLCEDYLPLRVQPMTEELLKQQKLNSHETTITQQSVSDSHLAELQEKIQQTEATNKILQEKLNEMSYELKCAQESSQKQDGTIQNLKETLKSRERETEELYQVIEGQNDTMAKLREMLHQSQLGQLHSSEGTSPAQQQVALLDLQSALFCSQLEIQKLQRVVRQKERQLADAKQCVQFVEAAAHESEQQKEASWKHNQELRKALQQLQEELQNKSQQLRAWEAEKYNEIRTQEQNIQHLNHSLSHKEQLLQEFRELLQYRDNSDKTLEANEMLLEKLRQRIHDKAVALERAIDEKFSALEEKEKELRQLRLAVRERDHDLERLRDVLSSNEATMQSMESLLRAKGLEVEQLSTTCQNLQWLKEEMETKFSRWQKEQESIIQQLQTSLHDRNKEVEDLSATLLCKLGPGQSEIAEELCQRLQRKERMLQDLLSDRNKQVLEHEMEIQGLLQSVSTREQESQAAAEKLVQALMERNSELQALRQYLGGRDSLMSQAPISNQQAEVTPTGRLGKQTDQGSMQIPSRDDSTSLTAKEDVSIPRSTLGDLDTVAGLEKELSNAKEELELMAKKERESQMELSALQSMMAVQEEELQVQAADMESLTRNIQIKEDLIKDLQMQLVDPEDIPAMERLTQEVLLLREKVASVESQGQEISGNRRQQLLLMLEGLVDERSRLNEALQAERQLYSSLVKFHAHPESSERDRTLQVELEGAQVLRSRLEEVLGRSLERLNRLETLAAIGGGELESVRIHHKHAY
